Results as given in PMC6853952, “MUC4-ErbB2 Oncogenic Complex: Binding studies using Microscale Thermophoresis” (Scientific Reports, 2019).

B1: eGFP-MUC4_(EGF3+1+2) (truncated mutant encompassing only the EGF domains of MUC4) (domain or fragment, human, UniProt Q99102 5118-5360, looked up)
chain: QNQSCPVNYCYNQGHCYISQTLGCQPMCTCPPAFTDSRCFLAGNNFSPTVNLELPLRVIQLLLSEEENASMAEVNASVAYRLGTLDMRAFLRNSQVERIDSAAPASGSPIQHWMVISEFQYRPRGPVIDFLNNQLLAAVVEAFLYHVPRRSEEPRNDVVFQPISGEDVRDVTALNVSTLKAYFRCDGYKGYDLVYSPQSGFTCVSPCSRGYCDHGGQCQHLPSGPRCSCVSFSIYTAWGEHCE
notes: MUC4, UniProt Q99102; said to hold the three EGF-like domains EGF3, EGF1 and EGF2 with what lies between; source: CHO-K1, transfected (peGFP-C1), selected, in cell lysate, used without further purification

Key:
[1] = biological target: eGFP-MUC4β fusion protein (transmembrane β subunit of MUC4) (human) (UniProt Q99102); assay: MST; normal model, optimised conditions: MPer lysate with the eGFP fusion kept constant around 33 nM, Fc protein titrated 1:1 in PBS with 0.05% P20 from 1 µM to 0.05 nM; 80% MST power, MST-on 30 s; blue LED
[2] = biological target: eGFP-MUC4β fusion protein (transmembrane β subunit of MUC4) (human) (UniProt Q99102); assay: MST; normal model: eGFP fusion in CHO-K1 lysate kept constant, ErbB2-Fc titrated, label-free; lysis buffer RIPA, dilution in PBS; 23 °C
[3] = biological target: eGFP-MUC4β fusion protein (transmembrane β subunit of MUC4) (human) (UniProt Q99102); assay: MST; normal model: eGFP fusion in CHO-K1 lysate kept constant, ErbB2-Fc titrated, label-free; lysis buffer MPer, dilution in MST buffer; 23 °C
[4] = biological target: eGFP-MUC4β fusion protein (transmembrane β subunit of MUC4) (human) (UniProt Q99102); assay: MST; normal model: eGFP fusion in CHO-K1 lysate kept constant, ErbB2-Fc titrated, label-free; lysis buffer RIPA, dilution in Tris-based MST buffer; 23 °C
[5] = biological target: T1, recombinant human ErbB2-Fc chimera (human, UniProt P04626 23-652); assay: MST; normal model, optimised conditions: MPer lysate with the eGFP fusion kept constant around 33 nM, Fc protein titrated 1:1 in PBS with 0.05% P20 from 1 µM to 0.05 nM; 80% MST power, MST-on 30 s; blue LED; conditions: one partner purified
T1 construct: ErbB2 receptor tyrosine kinase, human; extracellular domains, lacks the TM and CT part; Described as a disulfide-linked homodimeric protein; In the reverse model it was labelled on its 6His-tag with RED-tris-NTA dye (not covalent); also called recombinant ErbB2

[6] = biological target: T1, recombinant human ErbB2-Fc chimera; assay: MST; reverse model: ErbB2-Fc labelled on its 6His-tag with RED-tris-NTA dye kept constant, MPer lysate containing the eGFP fusion titrated 3:1 in PBS with 0.05% P20 (up to about 400 nM); red LED, 80% MST power; conditions: one partner purified

Molecule | Kd [1] | Kd [2] | Kd [3] | Kd [4] | Kd [5] | Kd [6]
PD-1-Fc (non-relevant protein containing the same Fc as recombinant ErbB2) (from UniProt Q15116 25-170) (Fc fusion) | > 20000 nM |  |  |  |  | 
recombinant human ErbB2-Fc chimera (from UniProt P04626 23-652) (Fc fusion) | 131 nM | > 20000 nM | > 20000 nM | > 20000 nM |  | 
B1 |  |  |  |  | 79 ± 18 nM | 65 ± 14 nM
